Starred links: 1 amine or outer side, 2 acyl side, 3 side chain; linkers in the order of their positions; H or OH if unused. Non-standard residues stand in square brackets, D forms with d. Groups on a side chain read outwards from the residue. No end group written: not given here. *: point of attachment. C20 diacid = O=C(O)CCCCCCCCCCCCCCCCCCC(=O)*; C19 diacid = O=C(O)CCCCCCCCCCCCCCCCCC(=O)*; C18 diacid = O=C(O)CCCCCCCCCCCCCCCCC(=O)*; γGlu = O=C(O)[C@H](CCC(=O)[*:2])N[*:1]; hSer = N[C@@H](CCO)C(=O)O; αMeS = C[C@](N)(CO)C(=O)O

Assay [1] has as its target T1, NPY2R.
T1 sequence (P49146 1-381, species assumed, looked up): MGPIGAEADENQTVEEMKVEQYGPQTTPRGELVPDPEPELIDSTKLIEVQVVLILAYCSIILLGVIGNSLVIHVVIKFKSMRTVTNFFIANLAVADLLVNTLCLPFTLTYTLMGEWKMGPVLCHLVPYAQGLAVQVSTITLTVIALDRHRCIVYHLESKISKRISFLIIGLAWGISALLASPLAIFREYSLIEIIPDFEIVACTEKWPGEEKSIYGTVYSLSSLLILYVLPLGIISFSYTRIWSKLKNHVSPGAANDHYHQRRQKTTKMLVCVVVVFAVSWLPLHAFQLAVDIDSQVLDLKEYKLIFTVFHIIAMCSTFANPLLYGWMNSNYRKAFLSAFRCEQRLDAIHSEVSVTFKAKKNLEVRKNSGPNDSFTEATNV
Put plainly: cell-based or functional assay.

Assay [2] deals with T2, NPY5R.
T2 sequence (Q15761 1-445, species assumed, looked up): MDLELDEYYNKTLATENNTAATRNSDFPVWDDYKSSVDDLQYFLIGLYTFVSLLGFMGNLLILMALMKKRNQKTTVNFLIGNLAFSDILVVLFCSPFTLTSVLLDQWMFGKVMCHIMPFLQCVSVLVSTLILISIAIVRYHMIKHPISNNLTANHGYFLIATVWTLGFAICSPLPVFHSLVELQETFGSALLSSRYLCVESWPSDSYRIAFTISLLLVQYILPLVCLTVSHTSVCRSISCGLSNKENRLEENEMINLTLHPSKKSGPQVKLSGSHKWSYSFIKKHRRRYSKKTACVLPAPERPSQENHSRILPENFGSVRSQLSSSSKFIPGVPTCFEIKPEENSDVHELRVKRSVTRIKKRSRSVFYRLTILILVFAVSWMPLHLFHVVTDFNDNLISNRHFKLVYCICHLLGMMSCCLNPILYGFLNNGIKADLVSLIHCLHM
As to the kind of experiment: cell-based or functional assay.

On to PKPEAPGK([γGlu-γGlu-C18 diacid])DASPEEWDRYYKDLRHYLNWLTRQRF-NH2 [Compound A32], for which, in assay [1], the “NPY2R pEC50” value is 10.8 -Log(EC50, M). Besides, in assay [2], the “NPY5R pEC50” value was 9 -Log(EC50, M).

B1: Compound A35 (peptide)
peptide: PKPEK([γGlu-γGlu-C18 diacid])PGEDASPKEWDRYYKDLRHYLNWLTRQRF-NH2
modifications: N-terminus assumed
SMILES: CC(C)C[C@H](NC(=O)[C@H](CC(=O)O)NC(=O)[C@H](CCCCN)NC(=O)[C@H](Cc1ccc(O)cc1)NC(=O)[C@H](Cc1ccc(O)cc1)NC(=O)[C@H](CCCNC(=N)N)NC(=O)[C@H](CC(=O)O)NC(=O)[C@H](Cc1c[nH]c2ccccc12)NC(=O)[C@H](CCC(=O)O)NC(=O)[C@H](CCCCN)NC(=O)[C@@H]1CCCN1C(=O)[C@H](CO)NC(=O)[C@H](C)NC(=O)[C@H](CC(=O)O)NC(=O)[C@H](CCC(=O)O)NC(=O)CNC(=O)[C@@H]1CCCN1C(=O)[C@H](CCCCNC(=O)CC[C@H](NC(=O)CC[C@H](NC(=O)CCCCCCCCCCCCCCCCC(=O)O)C(=O)O)C(=O)O)NC(=O)[C@H](CCC(=O)O)NC(=O)[C@@H]1CCCN1C(=O)[C@H](CCCCN)NC(=O)[C@@H]1CCCN1)C(=O)N[C@@H](CCCNC(=N)N)C(=O)N[C@@H](Cc1c[nH]cn1)C(=O)N[C@@H](Cc1ccc(O)cc1)C(=O)N[C@@H](CC(C)C)C(=O)N[C@@H](CC(N)=O)C(=O)N[C@@H](Cc1c[nH]c2ccccc12)C(=O)N[C@@H](CC(C)C)C(=O)N[C@H](C(=O)N[C@@H](CCCNC(=N)N)C(=O)N[C@@H](CCC(N)=O)C(=O)N[C@@H](CCCNC(=N)N)C(=O)N[C@@H](Cc1ccccc1)C(N)=O)[C@@H](C)O
For B1, the “NPY2R pEC50” value in assay [1] is 10.5 -Log(EC50, M). Further, the “NPY5R pEC50” value in assay [2] is 9.1 -Log(EC50, M).

B2: Compound A28 (peptide)
peptide: PKPEKPGKDASPKEWNRYYK([γGlu-γGlu-C20 diacid])DLRHYLNWLTRQRF-NH2
modifications: N-terminus assumed
SMILES: CC(C)C[C@H](NC(=O)[C@H](CC(=O)O)NC(=O)[C@H](CCCCNC(=O)CC[C@H](NC(=O)CC[C@H](NC(=O)CCCCCCCCCCCCCCCCCCC(=O)O)C(=O)O)C(=O)O)NC(=O)[C@H](Cc1ccc(O)cc1)NC(=O)[C@H](Cc1ccc(O)cc1)NC(=O)[C@H](CCCNC(=N)N)NC(=O)[C@H](CC(N)=O)NC(=O)[C@H](Cc1c[nH]c2ccccc12)NC(=O)[C@H](CCC(=O)O)NC(=O)[C@H](CCCCN)NC(=O)[C@@H]1CCCN1C(=O)[C@H](CO)NC(=O)[C@H](C)NC(=O)[C@H](CC(=O)O)NC(=O)[C@H](CCCCN)NC(=O)CNC(=O)[C@@H]1CCCN1C(=O)[C@H](CCCCN)NC(=O)[C@H](CCC(=O)O)NC(=O)[C@@H]1CCCN1C(=O)[C@H](CCCCN)NC(=O)[C@@H]1CCCN1)C(=O)N[C@@H](CCCNC(=N)N)C(=O)N[C@@H](Cc1c[nH]cn1)C(=O)N[C@@H](Cc1ccc(O)cc1)C(=O)N[C@@H](CC(C)C)C(=O)N[C@@H](CC(N)=O)C(=O)N[C@@H](Cc1c[nH]c2ccccc12)C(=O)N[C@@H](CC(C)C)C(=O)N[C@H](C(=O)N[C@@H](CCCNC(=N)N)C(=O)N[C@@H](CCC(N)=O)C(=O)N[C@@H](CCCNC(=N)N)C(=O)N[C@@H](Cc1ccccc1)C(N)=O)[C@@H](C)O
In the case of B2, the “NPY2R pEC50” value in assay [1] was 10.5 -Log(EC50, M). Moreover, the “NPY5R pEC50” value in assay [2] is 8.8 -Log(EC50, M).
As to PKPEAPGK([γGlu-γGlu-C20 diacid])DASPEEW[hSer]RYYKDLRHYLNWLTRQRF-NH2 [Compound A30], in assay [1], the “NPY2R pEC50” value was 10.3 -Log(EC50, M). Also, in assay [2], the “NPY5R pEC50” value was 8.5 -Log(EC50, M).

B3: Compound A29 (peptide)
peptide: PKPEKPGEDASPKEWNRYYK([γGlu-γGlu-C20 diacid])DLRHYLNWLTRQRF-NH2
modifications: N-terminus assumed
SMILES: CC(C)C[C@H](NC(=O)[C@H](CC(=O)O)NC(=O)[C@H](CCCCNC(=O)CC[C@H](NC(=O)CC[C@H](NC(=O)CCCCCCCCCCCCCCCCCCC(=O)O)C(=O)O)C(=O)O)NC(=O)[C@H](Cc1ccc(O)cc1)NC(=O)[C@H](Cc1ccc(O)cc1)NC(=O)[C@H](CCCNC(=N)N)NC(=O)[C@H](CC(N)=O)NC(=O)[C@H](Cc1c[nH]c2ccccc12)NC(=O)[C@H](CCC(=O)O)NC(=O)[C@H](CCCCN)NC(=O)[C@@H]1CCCN1C(=O)[C@H](CO)NC(=O)[C@H](C)NC(=O)[C@H](CC(=O)O)NC(=O)[C@H](CCC(=O)O)NC(=O)CNC(=O)[C@@H]1CCCN1C(=O)[C@H](CCCCN)NC(=O)[C@H](CCC(=O)O)NC(=O)[C@@H]1CCCN1C(=O)[C@H](CCCCN)NC(=O)[C@@H]1CCCN1)C(=O)N[C@@H](CCCNC(=N)N)C(=O)N[C@@H](Cc1c[nH]cn1)C(=O)N[C@@H](Cc1ccc(O)cc1)C(=O)N[C@@H](CC(C)C)C(=O)N[C@@H](CC(N)=O)C(=O)N[C@@H](Cc1c[nH]c2ccccc12)C(=O)N[C@@H](CC(C)C)C(=O)N[C@H](C(=O)N[C@@H](CCCNC(=N)N)C(=O)N[C@@H](CCC(N)=O)C(=O)N[C@@H](CCCNC(=N)N)C(=O)N[C@@H](Cc1ccccc1)C(N)=O)[C@@H](C)O
For the molecule B3, the “NPY2R pEC50” value in assay [1] is 10.9 -Log(EC50, M). Further, the “NPY5R pEC50” value in assay [2] is 9 -Log(EC50, M).

B4: Compound A36 (peptide)
peptide: PKPEK([γGlu-γGlu-C19 diacid])PGEDASPKEWNRYYKDLRHYLNWLTRQRF-NH2
modifications: N-terminus assumed
SMILES: CC(C)C[C@H](NC(=O)[C@H](CC(=O)O)NC(=O)[C@H](CCCCN)NC(=O)[C@H](Cc1ccc(O)cc1)NC(=O)[C@H](Cc1ccc(O)cc1)NC(=O)[C@H](CCCNC(=N)N)NC(=O)[C@H](CC(N)=O)NC(=O)[C@H](Cc1c[nH]c2ccccc12)NC(=O)[C@H](CCC(=O)O)NC(=O)[C@H](CCCCN)NC(=O)[C@@H]1CCCN1C(=O)[C@H](CO)NC(=O)[C@H](C)NC(=O)[C@H](CC(=O)O)NC(=O)[C@H](CCC(=O)O)NC(=O)CNC(=O)[C@@H]1CCCN1C(=O)[C@H](CCCCNC(=O)CC[C@H](NC(=O)CC[C@H](NC(=O)CCCCCCCCCCCCCCCCCC(=O)O)C(=O)O)C(=O)O)NC(=O)[C@H](CCC(=O)O)NC(=O)[C@@H]1CCCN1C(=O)[C@H](CCCCN)NC(=O)[C@@H]1CCCN1)C(=O)N[C@@H](CCCNC(=N)N)C(=O)N[C@@H](Cc1c[nH]cn1)C(=O)N[C@@H](Cc1ccc(O)cc1)C(=O)N[C@@H](CC(C)C)C(=O)N[C@@H](CC(N)=O)C(=O)N[C@@H](Cc1c[nH]c2ccccc12)C(=O)N[C@@H](CC(C)C)C(=O)N[C@H](C(=O)N[C@@H](CCCNC(=N)N)C(=O)N[C@@H](CCC(N)=O)C(=O)N[C@@H](CCCNC(=N)N)C(=O)N[C@@H](Cc1ccccc1)C(N)=O)[C@@H](C)O
Regarding B4, the “NPY2R pEC50” value in assay [1] was 10.9 -Log(EC50, M). Also, the “NPY5R pEC50” value in assay [2] was 8.7 -Log(EC50, M).

B5: Compound A34 (peptide)
peptide: PKPEKPGEDASPKEWDRYYK([γGlu-γGlu-C20 diacid])DLRHYLNWLTRQRF-NH2
modifications: N-terminus assumed
SMILES: CC(C)C[C@H](NC(=O)[C@H](CC(=O)O)NC(=O)[C@H](CCCCNC(=O)CC[C@H](NC(=O)CC[C@H](NC(=O)CCCCCCCCCCCCCCCCCCC(=O)O)C(=O)O)C(=O)O)NC(=O)[C@H](Cc1ccc(O)cc1)NC(=O)[C@H](Cc1ccc(O)cc1)NC(=O)[C@H](CCCNC(=N)N)NC(=O)[C@H](CC(=O)O)NC(=O)[C@H](Cc1c[nH]c2ccccc12)NC(=O)[C@H](CCC(=O)O)NC(=O)[C@H](CCCCN)NC(=O)[C@@H]1CCCN1C(=O)[C@H](CO)NC(=O)[C@H](C)NC(=O)[C@H](CC(=O)O)NC(=O)[C@H](CCC(=O)O)NC(=O)CNC(=O)[C@@H]1CCCN1C(=O)[C@H](CCCCN)NC(=O)[C@H](CCC(=O)O)NC(=O)[C@@H]1CCCN1C(=O)[C@H](CCCCN)NC(=O)[C@@H]1CCCN1)C(=O)N[C@@H](CCCNC(=N)N)C(=O)N[C@@H](Cc1c[nH]cn1)C(=O)N[C@@H](Cc1ccc(O)cc1)C(=O)N[C@@H](CC(C)C)C(=O)N[C@@H](CC(N)=O)C(=O)N[C@@H](Cc1c[nH]c2ccccc12)C(=O)N[C@@H](CC(C)C)C(=O)N[C@H](C(=O)N[C@@H](CCCNC(=N)N)C(=O)N[C@@H](CCC(N)=O)C(=O)N[C@@H](CCCNC(=N)N)C(=O)N[C@@H](Cc1ccccc1)C(N)=O)[C@@H](C)O
On to B5, for which the “NPY2R pEC50” value in assay [1] is 10.2 -Log(EC50, M). Further, in assay [2], the “NPY5R pEC50” value was 8.8 -Log(EC50, M).
As to PKPEAPGK([γGlu-γGlu-C19 diacid])DASPEEWDRYYKDLRHYLNWLTRQRF-NH2 [Compound A33], in assay [1], the “NPY2R pEC50” value was 10.4 -Log(EC50, M). The “NPY5R pEC50” value in assay [2] is 8.9 -Log(EC50, M).
Consider PKPEAPGK([γGlu-γGlu-C20 diacid])DASPEEW[αMeS]RYYKDLRHYLNWLTRQRF-NH2 [Compound A31], for which the “NPY2R pEC50” value in assay [1] was 10.4 -Log(EC50, M). The “NPY5R pEC50” value in assay [2] is 8.7 -Log(EC50, M).

Source of the values: patent publication US20250084142A1 (INTARCIA THERAPEUTICS, published 2025).
